Test results from the DeepSol protein solubility set.

Experiment: soluble on expression in E. coli; label from the status in PepcDB or PDB records

| Sequence | soluble on expression in E. coli |
| --- | --- |
| ETAADNAAYWSIATTMRSDNSALSAVQDALGLGAAKVDTAYDALESTIEVVKQIKAKLVAAYGVGADRGKIQDEIKQLQEQLKSISESASFSGENWLQASISNSGTPPVAESITKKVVASFTRTGSGNVGVTTVDYTLDSSTVLFDLSGGKLGILDKNAVFVSKTETEVMQTSTTAGKTSQAGYVVEKLSDAQIGALNATTTDTNTDPNLYSNGTDNYLRLAENVWVKATATNPSSGGTTVSPAYRDTGSTDWFYDVSAGTASANRSLGFSVSTLDLGNLDVVAAAMGGFAGGGTTYTGADAIDMMMSFVDKQLEAMTSTASSLGSLQSRISMQENFVSSLMDVIDKGVGRLV | not soluble |
| LSSPADSYNEGVKLQPQEISPPPTANLDRSNDKVYENVTGLVKAVIEMSSKIQPAPPEEYVPMVKEVGLALRTLLATVDETIPLLPASTHREIEMAQKLLNSDLGELINKMKLAQQYVMTSLQQEYKKQMLTAAHALAVDAKNLLDVIDQARLKMLGQTRPH | soluble |
| KEVRLSKHFYEDKEIEEIKHKDLAETPFQQQVIDYLYRHIAAQKEKVVEQQLQIKNHEQTITEFVHDIKTPVTAMKLLIDQENDDQRKRALLFEWSRINEMLDKQLYLTRLETHHRDMYFDYISLKRMVIDEIQVTRHISQAKGIGFELDFKDEQKVYTDVKWCRMMIRQVLSNSLKYSDNSTINLSGYNIEGHVVLKIKDYGRGISKRDLPRIFDRGFTSTTDRNDTASSGMGLYLVQSVKEQLGIEVKVDSIVGKGTTFYFIFPQQNEIIERMSKVTRLSF | not soluble |
| MGSDKIHHHHHHMPIKVNMFSSASKVKGQGVGSAYEELIRLLKTHFPKQIDVSINKFTKADISHYHTIDPNFYLSTFSKKRGIKVGYVHFLPETIEGSLNIPQPFRSIFYKYIISFYKRMDHIVVVNPTFIDKLVAYGISRDIITYIPNFVRKNEFYRFTEANRDAVRERLEVNNRFTVLGIGQVQERKGVKDFIKLAENNPDKYFIWAGGFSFGRLTDGYADLKQVVDNPPRNLKFTGIVDRNALVEYYNAADLFLLPSYNELFPMSVLEAFSCGVPVMLRDLELYHSIIKGYYIPTQDYEDMNTQLKLVSEDKERLNKFKQLSDEASEEYSEDHLADIWLDFYSSLTK | not soluble |
| HHHHHHLQGAAPTATVTPSSGLSDGTVVKVAGAGLQAGTAYDVGQCAWVDTGVLACNPADFSSVTADANGSASTSLTVRRSFEGFLFDGTRWGTVDCTTAACQVGLSDAAGNGPEGVAISFN | soluble |
| MSLSWLGNDDRRKKDPEVFQTVSDGLKKLYKTKLLPLEEYYRFHEFHSPALEDADFDNKPMVLLVGQYSTGKTTFIRYLLEQDFPGMRIGPEPTTDSFIAVMQGDVEGIIPGNALVVDPKKPFRKLNAFGNAFLNRFVCAQLPNAVLESISVIDTPGILSGEKQRISRGYDFAAVLEWFAERVDRIILLFDAHKLDISDEFSEVIKALKNHEDKMRVVLNKADQIETQQLMRVYGALMWSLGKIVNTPEVIRVYIGSFWSHPLLIPDNRKLFEAEEQDLFRDIQSLPRNAALRKLNDLIKRARLAKVHAYIISSLKKEMPSVFGKDTKKKELVNNLAEIYGRIEREHQISPGDFPNLKKMQDQLQAQDFSKFQPLKSKLLEVVDDMLAHDIAQLMVLVRQEETQRPVQMVKGGAFEGTLQGPFGHGYGEGAGEGIDDAEWVVARDKPMYDEIFYTLSPVDGKITGANAKKEMVRSKLPNSVLGKIWKLADIDKDGMLDDEEFALANHLIKVKLEGHELPSELPAHLLPPYKRKVSEGHHHHHH | soluble |
| MKVDKRIEAVTKFLESLGTVEDYTEDVAVKYRNLILKSYELYENKYNDTVDDSLCIEVWSNGTYVVTNEDLSFDCESEEDLQKLKELFVNTSFYITINELNKVGHKATLSVKAKAKNLRKLGQLIKEYRSCNCKYLKDKVTEIIGDDGRVYLDRISERMD | not soluble |
| MGSDKIHHHHHHMVTETYINKLLAPIRRRITGMLTRAVVSGIVEDLQRQNLQVKMHADESADNIERFQNYGMSSYPPEGAEAIVAALGGALSGLVAIAVEDKKFRPKGESGDVFLYHLEGHKIRLTKDGKIILTAQDVIFEIENSFTISTTDVIFNASGSFTIISPETLIDGPLHVTGDISTDLGITAVNGITSNSVITGSDLSANNISYLGHIHKDAENRPTTAPE | not soluble |
| MGSDKIHHHHHHMTLGIAFVGSGFSAKFHLRGLVGVRNVEVKGVYSRNLNSSKEFAMLSEQLGLGKPKVYSDISKMLSDKEINAVWLTVPNDVHLEYTKLIAEEVSQGRSNIHGITIEKPLARNVKEAKEMIRLVEKAGLLHGYLENQIFMPSVVRAREAIWEIGSRNSGRPYLARAAEEHSGPHNSWFWRPTISGGGALIDMTCHSLEATRFLLTDPAKTKSSLKPKTVYAETKTLKWNKKEYAQYLKEKYNVDFLKEPAEDYALTIVTYEDDLGNSVLAETRTSWNYVGPGLRLSVEVLGPEYSVNINTLQSELSVFFSRNIKLPQSEAFVEKQNADQGLMPIILDEAVVYGYQGEDRHMVESFISRKMPFENWYDGLLIVQLMMHAYLSAENGRKISFDPQKVEDFIPKVARGLYSAF | not soluble |
| RIVCQFSCGAASAVATKLALADYSATHDVQILNAYLVNEHADSLRFLADCEAWFEQPVTVLRDEKYGADIIEVFRRERFIKKQYGASCTQLLKRRLLDIWKLPGDVMVFGYTAEEADRLEDFRERNPDRPVIAPLIDRGLGKEDCKAMIQRAGIELPVMYRMGYDNANCI | not soluble |
| QGMQTKKAFLYVFNTMSDWEYGYLIAELNSGRYFKKDLAPLKVITVGANKEMITTMGGLRIKPDISLDECTLESKDLLILPGGTTWSEEIHQPILERIGQALKIGTIVAAICGATDALANMGYLDTRKHTSNNLEYTKMVCPNYKGEKFYELGPAVSDANLVTASGIAPLEFAMEVLKKIDVFTLDALHSWYNLNKTHKPEYFFQLMNSINK | soluble |
| MGHHHHHHSHPRNSCSLHYIHPYQPNEYLKALVAVGEICQDYDSDKMFPAFGFGARIPPEYTVSHDFAINFNEDNPECAGIQGVVEAYQSCLPKLQLYGPTNIAPIIQKVAKSASEETNTKEASQYFILLILTDGVITDMADTREAIVHASHLPMSVIIVGVGNADFSDMQMLDGDDGILRSPKGEPVLRDIVQFVPFRNFKHASPAALAKSVLAEVPNQVVDYYNGKGIKPKCSSEMYESSRTLAP | not soluble |
| TEKFTWNTNVSYSTNSNKVVALSSEKFSMDQDYFYTGYTGEPIQTTTHIVQVGKPIGTFYGLKSVDITDDGLWLVENKKGEHVLAEETDATDWQVLGNGIPKHYLNWNNTFNFFNFDLSINMRGAFGFQILNYQRMYYENAKPEIQYNRLNSAFDKVYGKTQLKDDQRYVSYYVEDGDYWKIDNVTLGYTFKLSKQHIIKNLRIYASVLNLATITGYKGMDPEVPLSSNTYGLLDAGTDNRDKYPTNRTYTFGVNLTF | not soluble |
| TGTAIYFIHGTADQPAAFKRVAERLIDTGLPDEICSLNLLAFDQRYQGKSIKFFAEQLKNKIKVNQHQRVILMAHSRGGLVASYFAEFLAKEASIDVPLVITMGTPFNGSYLAVKPLSWFSDSIREMEINSEFLAQLKQEIVEHSVSAYHFFIAKEDAIVPGESGYIKDYVDKYPESLHILDRHGHLSIMSSHRLVSHISSLLHDYIDDY | not soluble |
| MSLANIQEIAKLAGVSSATVSRVINNRDYVSEETRKRVQTIIDKLDYVPNINAVSLKKGATKLIGMVIPSFTDSLNVFLKSFTMMAQEHGYNVTLFMTRIDPDKELEALEMLRQKQIDALVLVIRSNDWKTIEHYTKYGPIVTWQRVESEKIPSVFMNQYDGYTLALEHLYAKGYRKFVNVYGNTTGLNTQSRMLAFKDFCARYELDPHEFRQFYGQGSRQDGEKIAHWWSETEHKPDAFLTPNDYFAAGLLTEARRLGYSVPEDFAICGFDNMEVAHLLDITTIHYPVNLQAENAFTLIMNQLFGSNLPLLDLDFHLVERKTTEGHHHHHH | soluble |
| MGSDKIHHHHHHMVRLSEAEVQNPKLGEYQCLADLNLFDSPECTRLATQSASGRHLWVTSNHQNLAVEVYLCEDDYPGWLSLSDFDSLQPATVPYQAATFSESEIKKLLAEVIAFTQKAMQQSNYYLWGGTVGPNYDCSGLMQAAFASVGIWLPRDAYQQEGFTQPITIAELVAGDLVFFGTSQKATHVGLYLADGYYIHSSGKDQGRDGIGIDILSEQGDAVSLSYYQQLRGAGRVFKSYEPQRR | soluble |
| MFSYSSSDWQRRFDEPEKPSRIIAHHDERGPFAKDRARVLHSAALRRLADKTQVVGPRDGDNPRTRLTHSLEVAQIARGIGTGLGLDADLCEMAGLTHDIGHPPYGHNGEKALAEIAQDCGGFEGNAQTLRILSKLEPKIVDDHDQSYGLNLTRAALDAACKYPRTKTNPDGSVNKKYGCYDEDAHILQWVRQGHEDTSACVEAQAMDFSDDIAYSVHDVEDGIVSGRVHLGVLWDFVELAELAEKGARAFGGTPEALVDAADHLRELPIISAAADFDGSLRGYVDLKAMTSQLVGRYVGAVIEASRAANPTGVFGRSTGQVVVPDQVLAEVTLLKTIAVLYVMDDPTHRQRQDRQRERIYRVYDYLVAGGRGALDPMFRLWWEQAESEAQRQRVIIDNISSMTESRLERVAKQSAELSSFMG | not soluble |
| MASGASATQRIPSKRQTLDEAYAPPANFLEIEVINPITHGVGKMRYTDYEIRMRSNLPVFKQKESSVRRRYSDFEWVRAELERDSKIVVPTLPGKSFKRQLPFRSDDGIFEEEFIENRRKALELFINKVAGHPLAQNERSLHIFLQEPTIDKNYVPGKIRTA | soluble |
| KEPSHNSFTFNESLSFTGFSKLDNNTNFNASIVSDDNRAGAMVFGQARYRNHWDANNDGYSELGKIDARSLGAHSYLRLSDYSKLTGEFHTISEFRRGGDRIDLPPHVVGVAEQTDHSVFSGNLKYDLFSSNYKHHFQAYTSGQIVNRKSYYGGIGEIDVNGHPGGTEGYPIPQDQYGNNYGVTKGKTYMGGIQYSYDLDKFLLMPSQLLFGAEYTRDELNDVMPILSWQTGEDANGNTIPLYPELDQNINNYSLFGQNEWKNDRWSILVGARLDKHSEVKDMILSPRTTLRFNVNPDINLRATYAKGFRAPQVFDEDLHVGVVGGEAQKVFNDPNLKPEISHAFSLSADMYHRFGNVQTNFLVEGFYTRLLDVFTNEEQPDQHDGIKRYTRINGSGAKVFGLNLEGKVAYKSFQLQAGLTLASNKYDEAQEWGLNTVKDTNGAFVTEANANGQQEYKNESMTDTQITRTPSVYGYFTLAYNPAHSWNIALTGAYTGQMYVPHAIEYGVKSAELDIMQNNPEITDETGKAPRIDELKKTPAFFDLGLKVGYDFHVFQATEVQLYVGMNNIFNSFQKDFDRGAARDSGYIYGPTQPRTGYMGLVVKF | not soluble |
| MSLSQLREIQQQFMDYLLASAAQTPIPETIEKPFSDKVAEQGGVGRDIRMQIYANAYRIRLTEVLDTDHEILGLYLGDDLFARMANGYIAHQPSRFTSLRQFADALPGYLASDAFFSQYPIISDIARFERRLLNAFDAKDEQRASFAALQSLPADAWPYCQLRFHPSVQLFECASNAVETWQALKHQQVPPAPDYQGKHAWLLWRGENRLTEFISLAEYQLALIQGFIHGANIAEQCELMLNFFTPEEAMQQLLQALQAWFQLGLILSVQPNEGHHHHHH | not soluble |
| MITELRPNPYQPRKHFNKEAIQELSASIKEHGILQPLIARKSIKGYEIVAGERRYRAAKEAGLEKVPAVVRQLNEQQMMEFALLENLQREDLNPMEEAMAYQMLMNELNVTQEQLAKCLGKSRPYIANYTRLLSLPSFVQDMIANGQLSMAHGRTLLTIKDEEQLKSLLKRIEKEGLNVRQLEKIVQEINQSVSRETKQVKKERNIFFIERETFLREKFGTDVKIKETKKEKGKIEIEFFNKEDLNRILELLAQKN | not soluble |
